According to patent US20210179726A1 (DINGFU BIOTARGET, published 2021):
Where a chain is given by its changes, count along the chain named.

T1: hGITR-EGFP on HEK293 cells (human, UniProt Q9Y5U5 26-241)
T1 construct: EGFP fusion expressed on transfected HEK293 cells; also called human GITR
T1 sequence (looked up): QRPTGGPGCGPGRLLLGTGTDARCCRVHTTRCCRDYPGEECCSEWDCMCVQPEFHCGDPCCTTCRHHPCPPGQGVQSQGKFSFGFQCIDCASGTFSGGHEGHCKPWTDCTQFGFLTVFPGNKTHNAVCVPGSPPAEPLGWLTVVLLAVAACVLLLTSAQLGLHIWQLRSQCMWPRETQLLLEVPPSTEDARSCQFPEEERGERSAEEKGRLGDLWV

T2: hOX40-EGFP on HEK293 cells (human, UniProt P43489 29-277)
T2 construct: EGFP fusion expressed on transfected HEK293 cells; also called human OX40
T2 sequence (looked up): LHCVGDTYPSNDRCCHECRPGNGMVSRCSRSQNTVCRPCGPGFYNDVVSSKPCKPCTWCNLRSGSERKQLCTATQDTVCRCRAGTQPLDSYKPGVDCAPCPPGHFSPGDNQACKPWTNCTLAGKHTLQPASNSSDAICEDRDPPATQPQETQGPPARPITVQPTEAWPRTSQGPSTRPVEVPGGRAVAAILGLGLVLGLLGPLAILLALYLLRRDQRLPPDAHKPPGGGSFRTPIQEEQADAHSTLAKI

B1: m2G3 (antibody, human IgG1, V domains shown)
VH: EVKLQESGGGLVKPGGSLKLSCAASGFTFSSFAMSWIRQTPEKRLEWVAAISDGGTYTYYPNNVKGRFTISRDDAKNNLYLQMSHLKSEDTAMYYCVRNRGGPFDYWGQGTTLTVSS
VL: DIVLTQSPAIMSASPGEKVTMTCSASSSVSYMNWYQQKSGTSPKRWIYDTSKLASGVPVRFSGSGSGTSYSLTISSMEAEDAATYYCQQWNSNPPTFGAGTKLELK
notes: Chimeric antibody: mouse VH/VL on human IgG1 / human kappa constant regions; also called clone 2G3; not shown: human IgG1 constant region, UniProt P01857
B2: m3B8 (antibody, human IgG1, V domains shown)
VH: QVQLQESGPGLVAPSQSLSITCTVSGFSLTNYAVSWVRQPPGKGLEWLGVIWGDGTTNYHSALISRLIISKDNSKSQVFLKLNSLQTDDTATYYCAKEGDYGDYVGWFAYWGQGTLVTVSA
VL: DIVLTQSPASLAVSLGQRATISCRASESVEYYGTSLMQWYQQKPGQPPKLLIYAASNVESGVPARFSGSGSGTDFSLNIHPVEEDDFAMYFCQQSRKIPYTFGGGTKLEIK
notes: Chimeric antibody: mouse VH/VL on human IgG1 / human kappa constant regions; also called clone 3B8; not shown: human IgG1 constant region, UniProt P01857
B3: m2E7 (antibody, human IgG1, V domains shown)
VH: EVQLQESGPELKKPGETVKISCKASGYTFTTYGMSWVKQAPGKGLQWMGWINTNSGVPTYVEDFKGRFAFSLESSANTAYLQINNLKNEDTAIYFCTREGDALDYWGQGTSVTVSS
VL: DIVMTQSTAIMSASPGEKVTMTCSASSSVSYMHWYQQKSGTSPRRWIYDTSRLASGVPARFSGSGSGTSYSLTISSMEAEDAATYYCQQWSNTPPFTFGAGTKLELK
notes: also called clone 2E7; not shown: human IgG1 constant region, UniProt P01857
B4: m1A8 (antibody, human IgG1, V domains shown)
VH: EVQLQESGAELVKPGASVKLSCKASGYSFTSSWMHWVKQRPGQGLEWIGMIHPDSGFTNYNEKFKSKATLTVDKSSSTAYMRLSSLTSEDSAVYYCARTSYYDTSYTSMDFWGQGNSVTVSS
VL: DIVLTQSPAILSVSPGERVSFSCRASQSIGTSIHWYQQRTNGSPRLLIKYASESISGIPSRFSGSGSGTDFTLSINSVESEDIADYYCQQSNSWPLTFGAGTKLELK
notes: Chimeric antibody: mouse VH/VL on human IgG1 / human kappa constant regions; also called clone 1A8; not shown: human IgG1 constant region, UniProt P01857
B5: m4G1 (antibody, human IgG1, V domains shown)
VH: QVQLQQSGPELVKPGASVKISCKASGYSFTAYNMNWVKQSKGKSLEWIGLINPNYATTSYNQKFKDKATLTVDQSSSTAYMQLNSLTSEDSAVYYCAYYSYYSYGGGYAMDYWGQGTSVTVSS
VL: B4 VL with V3L, T72I, L96W, A100G, K103R, L106I
notes: Chimeric antibody: mouse VH/VL on human IgG1 / human kappa constant regions; also called clone 4G1; not shown: human IgG1 constant region, UniProt P01857
B6: m4H3 (antibody, human IgG1, V domains shown)
VH: QVQLQQSGPELVKPGASVKISCKASGYSFTAYNINWVKQTNGKSLEWIGIINPNYGTTSYNQKFKGKATLTVDQSSSTAYMQLNSLTSEDSAVYYCARRNGDYVGYAMDSWGQGTSVTVSS
VL: B4 VL with I33M, T40K, S91T, S93N, L96W, A100G, L106F
notes: Chimeric antibody: mouse VH/VL on human IgG1 / human kappa constant regions; also called clone 4H3; not shown: human IgG1 constant region, UniProt P01857
B7: m2B8 (antibody, human IgG1, V domains shown)
VH: EVQLQESGGGLVQPKGSLKLSCAASGFNFNTYTMNWVRQAPGKGLEWVARIRYKSNNYATYYADSVKDRFTISRDDSESILYLQMNNLRTDDTAIYFCVRELGLWYFDVWGAGTTVTVSS
VL: DIVMTQSPSYLAASPGETITINCRASKSISKYLAWYREKPGKTNNLLIYSGSTLQSGIPSRFSGSGSGTDFTLTISSLEPEDFAMYYCQQHNEYPLTFGAGTKLELK
notes: Chimeric antibody: mouse VH/VL on human IgG1 / human kappa constant regions; also called clone 2B8; not shown: human IgG1 constant region, UniProt P01857

target: T1, hGITR-EGFP on HEK293 cells; assay: FACS on hGITR-EGFP HEK293 cells
Description: (§1) The hCD137-EGFP, hOX40-EGFP and hGITR-EGFP cells as described in Example 1 were washed twice in PBS, 10 μg/ml of each chimeric antibody as prepared in Example 3 (m2E7, m2B8, m4H3, m3E7, m1A8, m4G1, m2G3, m2F11 and m3B8) was added to each type of cells and incubated at 4° C. for 30 min. Then it was washed twice with PBS, anti-human Ig-APC (Jackson ImmunoResearch Laboratories, Cat #109-135-098) was added and were incubated at 4° C. for 30 min, washed twice with PBS and resuspended in 300 μl PBS. In FIG. 2, NC represents negative control (PBS), a-hlg-APC represents secondary antibody only, the other panels represent results obtained with each of the corresponding clone, respectively.

binding result | Binder
no binding (tested: 10 µg/ml) | B1
no binding (tested: 10 µg/ml) | B2
no binding (tested: 10 µg/ml) | B3
no binding (tested: 10 µg/ml) | B4
no binding (tested: 10 µg/ml) | B5
no binding (tested: 10 µg/ml) | B6
no binding (tested: 10 µg/ml) | B7

target: T2, hOX40-EGFP on HEK293 cells; assay: FACS on hOX40-EGFP HEK293 cells
Description: as §1

binding result | Binder
no binding (tested: 10 µg/ml) | B4
no binding (tested: 10 µg/ml) | B5
no binding (tested: 10 µg/ml) | B6
no binding (tested: 10 µg/ml) | B7

target: T3, hCD137-EGFP on HEK293 cells (human, UniProt Q07011 24-255); assay: FACS on hCD137-EGFP HEK293 cells
T3 construct: EGFP fusion expressed on transfected HEK293 cells; also called human CD137
Description: as §1

T3 sequence (Q07011 24-255): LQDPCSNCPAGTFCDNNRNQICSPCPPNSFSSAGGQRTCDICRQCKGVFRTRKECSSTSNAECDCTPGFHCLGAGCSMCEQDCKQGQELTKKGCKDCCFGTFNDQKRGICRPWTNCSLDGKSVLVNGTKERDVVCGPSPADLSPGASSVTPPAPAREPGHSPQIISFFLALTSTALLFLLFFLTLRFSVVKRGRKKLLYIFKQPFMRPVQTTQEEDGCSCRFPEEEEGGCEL

binding result | Binder
no binding (tested: 10 µg/ml) | B4
no binding (tested: 10 µg/ml) | B5
no binding (tested: 10 µg/ml) | B6
no binding (tested: 10 µg/ml) | B7

target: T2, hOX40-EGFP on HEK293 cells; assay: FACS dot plot on OX40-EGFP HEK293 cells, anti-human Ig-APC secondary
Description: as §1

binding result | Binder
no binding (tested: 10 µg/ml) | B1
no binding (tested: 10 µg/ml) | B2
no binding (tested: 10 µg/ml) | B3

target: T3, hCD137-EGFP on HEK293 cells; assay: FACS dot plot on CD137-EGFP HEK293 cells, anti-human Ig-APC secondary
Description: as §1

binding result | Binder
no binding (tested: 10 µg/ml) | B1
no binding (tested: 10 µg/ml) | B2
no binding (tested: 10 µg/ml) | B3
